One data set deals with U2AF65 E425A (UniProt P26369 1-475, E425A). Nature of the data set: EMSA.
In the next data set the target is U2AF65 WT (UniProt P26369 1-475). Put plainly: EMSA.

This note sets out measurements from paper PMC9186393.

Sequence of U2AF65 E425A (P26369 whole entry E425A, one chain of several): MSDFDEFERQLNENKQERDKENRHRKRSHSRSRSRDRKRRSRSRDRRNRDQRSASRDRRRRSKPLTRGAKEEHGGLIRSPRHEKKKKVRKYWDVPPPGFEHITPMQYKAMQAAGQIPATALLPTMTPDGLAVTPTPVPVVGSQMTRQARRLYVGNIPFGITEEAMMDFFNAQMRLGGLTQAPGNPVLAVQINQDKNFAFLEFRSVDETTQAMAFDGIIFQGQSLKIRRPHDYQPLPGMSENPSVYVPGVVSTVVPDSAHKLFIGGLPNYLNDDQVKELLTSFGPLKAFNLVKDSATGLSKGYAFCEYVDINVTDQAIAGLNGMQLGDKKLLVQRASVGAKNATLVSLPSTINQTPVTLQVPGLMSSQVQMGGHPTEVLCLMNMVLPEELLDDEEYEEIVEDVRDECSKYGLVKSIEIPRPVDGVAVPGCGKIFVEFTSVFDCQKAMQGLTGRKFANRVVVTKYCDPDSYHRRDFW
Sequence of U2AF65 WT (P26369 whole entry, one chain of several): as the sequence (P26369 whole entry E425A, one chain of several) above, with A425E counted along it

B1: U2 LPL 3' splice site (ssRNA)
RNA: CCUGCUUUUUUCCCUUUUAAGGCCUCGAUCCA
Take B1: the binding result with U2AF65 E425A and with U2AF65 WT was “binds” in each case.

B2: U12 Scn8a 3' splice site (ssRNA)
RNA: CUUAACUCCUCUCUACAGU
Regarding B2, the binding result with U2AF65 E425A and in the data set with U2AF65 WT was “no binding” each time.
